In the supplement of paper PMC10724198:
± gives the standard deviation of the averaged measurements.

System: Saccharomyces cerevisiae
Test: protein stability index of tFT-peptide fusion (C-terminal peptide) (PSI (0-1 scale)); higher = more stable (slower turnover)
Settings: genetic background: wild type; temperature: 30 C
Description: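 Multiplexed protein stability (MPS) profiling in S. cerevisiae. Random 12-aa peptides (tFT-X12 library) are fused to the C-terminus of a sfGFP-mCherry tandem fluorescent timer, after mCherry and a GGGS linker. Cells are FACS-sorted into 8 mCherry/sfGFP bins and deep-sequenced. The protein stability index (PSI) is the read-weighted bin average, scaled from 0 (unstable) to 1 (stable). Only peptides with >10 reads are reported; cells were grown at 30 °C in SC-His with glucose.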
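Also: PSI is a weighted mean of sequencing reads over stability bins, variants kept only with over 10 reads, mCherry proximal and sfGFP distal, peptide attached via GGGS linker.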

Row | Sequence | protein stability index
1 | PSPFFSRPSYLS | 0.718 ± 0.026
2 | PFPPPPSPPLYP | 0.7292 ± 0.0012
3 | PSPAPLASPPRA | 0.693 ± 0.042
4 | LLWVSAPHRYVR | 0.642 ± 0.036
5 | FGGGSWSMRWSW | 0.639 ± 0.024
6 | RGVIWLVCGGPC | 0.54 ± 0.032
7 | PVSCLGNQACYV | 0.628 ± 0.073
8 | SCPLSARLYASL | 0.675 ± 0.079
9 | PVTRRDVDLPPP | 0.706 ± 0.039
10 | FVWAGVGCWSEA | 0.723 ± 0.023
11 | SSGSRCQQKIRY | 0.66 ± 0.11
12 | THTDQKTNHRRQ | 0.69 ± 0.05
13 | SKNLKQTQKKKT | 0.808 ± 0.069
14 | KIIARMEKGKEI | 0.771 ± 0.042
15 | KKQKKKQNKQKT | 0.731 ± 0.026
16 | PPLPPPFSPLPP | 0.686 ± 0.025
17 | NMIKNNKWDINR | 0.7 ± 0.074
18 | RLRGGVPGRTVG | 0.68 ± 0.078
19 | VQRFLGSCPLSI | 0.611 ± 0.051
20 | YYIITRWPNTTR | 0.847 ± 0.2
21 | PPPTPPPPRPLL | 0.747 ± 0.048
22 | GKRETQVEEGAR | 0.765 ± 0.11
23 | SSTLVAFRFPSP | 0.7014 ± 0.0043
24 | DSSLHRLASLKT | 0.643 ± 0.075
25 | KKGRGEGTKKKR | 0.602 ± 0.047

Row | Sequence | protein stability index
26 | FRSHGHLSQNSY | 0.679 ± 0.044
27 | DRGGCRRAGSCQ | 0.69 ± 0.018
28 | GGFRDIAYCLVP | 0.613 ± 0.0072
29 | LVGALISHSILR | 0.629 ± 0.019
30 | PPLRPFLLPPPS | 0.722 ± 0.077
31 | YDDSSLLFSNNL | 0.702 ± 0.0078
32 | PPPPPPLPLLSI | 0.668 ± 0.038
33 | TDIRMRRLNRDT | 0.684 ± 0.029
34 | CKGIGRGGGVVS | 0.607 ± 0.051
35 | ITYRTSGMGIRA | 0.6182 ± 0.0028
36 | PLLRGFPAHLAS | 0.699 ± 0.078
37 | YPPPPPPPPPRF | 0.7367 ± 0.0056
38 | TRSSHSHLETFV | 0.684 ± 0.03
39 | LPSSFLPVPAPP | 0.6976 ± 0.00082
40 | SRGAIGGSACFR | 0.652 ± 0.037
41 | GFLEAIMRFCGL | 0.719 ± 0.0081
42 | VSTENDGCGTPR | 0.712 ± 0.022
43 | GGLGFVGGVRVQ | 0.6705 ± 0.00086
44 | RVSVFILGWFRD | 0.532 ± 0.018
45 | DHLPSPRPRPPP | 0.7295 ± 0.0012
46 | PLPAPAPSPPSP | 0.695 ± 0.018
47 | RLRDMPRDLTFW | 0.706 ± 0.12
48 | DGKAGRKGFWRK | 0.746 ± 0.023
49 | GVCSRVFLGRVE | 0.6836 ± 0.0065
50 | RRTYERRVATSR | 0.691 ± 0.031

Row | Sequence | protein stability index
51 | SLWTDGYIFVLE | 0.732 ± 0.016
52 | EELGGGTRNYEG | 0.693 ± 0.018
53 | IAEFRRDKIVKR | 0.706 ± 0.07
54 | AMGILSHLTACW | 0.659 ± 0.048
55 | DGCRFEFVPSGD | 0.629 ± 0.023
56 | KKLKQTRRKKEN | 0.7296 ± 0.0068
57 | RRTGTFSGLAGL | 0.696 ± 0.0071
58 | PPRPPRPSPPPP | 0.72293 ± 8.1e-05
59 | LIPIRGESTFRF | 0.779 ± 0.11
60 | GGCVWWSWGRGG | 0.652 ± 0.016
61 | SICFWCKHWSDV | 0.72 ± 0.064
62 | GGGWSRGGVGDR | 0.672 ± 0.027
63 | VDSCASVGQGGL | 0.702 ± 0.044
64 | WPPRPPRPSSTL | 0.724 ± 0.011
65 | GGWGPGALEVGT | 0.6578 ± 0.0018
66 | SVAQHLRNGNMC | 0.745 ± 0.13
67 | ERRERGGERNTP | 0.658 ± 0.01
68 | DNRKIRSEKITP | 0.69 ± 0.099
69 | SPLGAHPTRIVF | 0.6915 ± 0.00071
70 | PSHTPLPPSSLS | 0.763 ± 0.089
71 | TALGLILSSFVY | 0.595 ± 0.067
72 | RSEIKKPIVIKT | 0.576 ± 0.045
73 | GGLVTSGGWRCA | 0.71 ± 0.065
74 | VPPSPPRPPPPS | 0.697 ± 0.053
75 | HRCQRGLIARPR | 0.665 ± 0.016

Row | Sequence | protein stability index
76 | VFLPPPPPPAPP | 0.639 ± 0.011
77 | SPLPPPPAPFLP | 0.6762 ± 0.0028
78 | ITTVRGALLARY | 0.666 ± 0.068
79 | QKGGGGEVGAEG | 0.699 ± 0.066
80 | SRVSRGEWGVGI | 0.659 ± 0.023
81 | SFSFPFGCSSRF | 0.7195 ± 0.0046
82 | PPPPAPSPPPSP | 0.717 ± 0.0094
83 | TDISPRFVSVYL | 0.656 ± 0.017
84 | KKYNNMRKHYVK | 0.701 ± 0.02
85 | VFVGGGCRGFCL | 0.624 ± 0.075
86 | NRFFFRHGCVVF | 0.691 ± 0.031
87 | RRSENHTEHKGD | 0.712 ± 0.032
88 | ITSLQAPPEYLH | 0.6922 ± 0.0062
89 | GVRVRAGYDVRA | 0.6619 ± 0.0033
90 | VDVWCGRGVGRG | 0.707 ± 0.031
91 | AVPSGLPLMFPR | 0.662 ± 0.045
92 | PPLPPPPPAPAP | 0.634 ± 0.016
93 | FPCIPAAPPIFL | 0.71 ± 0.015
94 | LSLLPPLCFPSH | 0.8215 ± 0.0043
95 | LPPSSSPCPLPS | 0.7304 ± 0.0053
96 | GASGWGGGGRGR | 0.767 ± 0.14
97 | PTLPSRYPPPMF | 0.751 ± 0.01
98 | FQMLPLGHQFPQ | 0.736 ± 0.0087
99 | GRPRPRSGWILL | 0.672 ± 0.067
100 | PSASRILSPPLP | 0.649 ± 0.016

Row | Sequence | protein stability index
101 | GGVGCLGVFSVG | 0.7 ± 0.013
102 | PPHCPLVLPSLS | 0.67 ± 0.044
103 | PRAPRLQAPGPG | 0.75233 ± 0.00055
104 | PSRVRPLRLVLP | 0.614 ± 0.033
105 | PPCTSTTQRANP | 0.696 ± 0.073
106 | CCLSVFSYESLA | 0.709 ± 0.016
107 | EYTRGIRKTRRA | 0.608 ± 0.051
108 | TWIKVPVERTRP | 0.683 ± 0.053
109 | TSIDRLLIRYEK | 0.649 ± 0.12
110 | PDERMVIPAIRD | 0.665 ± 0.12
111 | FPTFSPRPHPLS | 0.72 ± 0.0098
112 | PSPATCLCSPLP | 0.7057 ± 0.0019
113 | CAITAPINRSWN | 0.702 ± 0.009
114 | MSRRSVFGAVFW | 0.663 ± 0.039
115 | RLPASGTPAYSE | 0.67 ± 0.02
116 | QMGGGGEVGAEG | 0.724 ± 0.009
117 | GRLLRVSCHGVS | 0.701 ± 0.019
118 | GGVFTHLEKAVD | 0.649 ± 0.046
119 | WVCRVWGGWLRG | 0.686 ± 0.044
120 | KKSERRGQKDYE | 0.696 ± 0.028
121 | CVGSVEVGHSGI | 0.702 ± 0.02
122 | CMGSDKAGKSVA | 0.681 ± 0.016
123 | QTKKKLTQSQRT | 0.694 ± 0.019
124 | QMTSRVPIGRLY | 0.696 ± 0.0035
125 | YRTSLSMANHLL | 0.611 ± 0.069

Row | Sequence | protein stability index
126 | LPAHPPAAPGAP | 0.692 ± 0.032
127 | GVFHAWAWCCGF | 0.78 ± 0.099
128 | QPGPPPRPHVQP | 0.676 ± 0.048
129 | DPPSPLPRVSPP | 0.706 ± 0.068
130 | PPPPPPPPLAPP | 0.694 ± 0.022
131 | TYYCFYCHPSLL | 0.699 ± 0.057
132 | SDPPPPPDPPSP | 0.673 ± 0.032
133 | PPPLPTRPPPSA | 0.649 ± 0.0082
134 | PPPPPLPPRSCL | 0.703 ± 0.013
135 | SPANLGFKHSGR | 0.674 ± 0.021
136 | STPHPPPILHVL | 0.581 ± 0.013
137 | PSPPHPPPPSPY | 0.753 ± 0.097
138 | SHSKSQRRFQTR | 0.637 ± 0.093
139 | RKQQGDNHKGRG | 0.706 ± 0.14
140 | SEVRLMSVTSHS | 0.7417 ± 0.0038
141 | VSSSSPSNFIPL | 0.666 ± 0.093
142 | YLYSCVCGVLSN | 0.5472 ± 0.0049
143 | RIPSDLTLNPRG | 0.669 ± 0.05
144 | LKFRETHIRNHP | 0.701 ± 0.05
145 | KAEKMRARQKED | 0.657 ± 0.011
146 | SRVWVGQMIRGR | 0.664 ± 0.019
147 | TGWASWVSVCLI | 0.5587 ± 0.00094
148 | NPPPSPALLSRP | 0.809 ± 0.06
149 | WCPGVSGVAGVF | 0.703 ± 0.056
150 | RPLLVPVSSTPP | 0.716 ± 0.045

Row | Sequence | protein stability index
151 | LSPLPPPAGHLP | 0.646 ± 0.096
152 | RKKDHKSIIQII | 0.57779 ± 0.00015
153 | APSPPTRYLPLF | 0.684 ± 0.019
154 | FFSFTTPHLSFA | 0.688 ± 0.054
155 | KIQGGKQKTVDD | 0.824 ± 0.25
156 | LALTFRLQAPLA | 0.695 ± 0.017
157 | AYFLPPLPTTPP | 0.692 ± 0.054
158 | GEDADLVPILLG | 0.707 ± 0.044
159 | GKTQLIKNIQNI | 0.568 ± 0.023
160 | TFTSTTLARPFS | 0.831 ± 0.036
161 | CFTPYNPSPLLS | 0.715 ± 0.021
162 | TCRGGNPFRACC | 0.707 ± 0.054
163 | SWAFAGGGAATG | 0.694 ± 0.011
164 | ACYEYRPSPASC | 0.728 ± 0.053
165 | LLLLDLWLPSVL | 0.76 ± 0.059
166 | EGKKEKKGSKGE | 0.708 ± 0.052
167 | SAGPVYAGGVAS | 0.6895 ± 0.0068
168 | STCVRSRTCETP | 0.675 ± 0.021
169 | VSLFETIPVLSR | 0.605 ± 0.014
170 | VSHCLLRAFSDC | 0.556 ± 0.011
171 | IRLYGQATFRWE | 0.625 ± 0.086
172 | PSPQPTRPPGPL | 0.704 ± 0.039
173 | STTCPTGLTVGR | 0.69 ± 0.054
174 | VIQKHAMGDALL | 0.699 ± 0.03
175 | RGASDYARMSAF | 0.7047 ± 0.0037

Row | Sequence | protein stability index
176 | SWFSPMCTTSPR | 0.677 ± 0.04
177 | PPLPSSLPPISF | 0.703 ± 0.015
178 | VGRGEEYYGMEV | 0.634 ± 0.0066
179 | GHCFCRLLPLHW | 0.755 ± 0.025
180 | RLGGRGRGSIHS | 0.652 ± 0.022
181 | SHVARFMDEFCM | 0.79 ± 0.038
182 | LAPPIRPCPPSP | 0.681 ± 0.056
183 | FLFGLGEIDGVR | 0.84 ± 0.034
184 | FALERLWFMSVG | 0.67 ± 0.031
185 | PAPSAPLLRTRP | 0.6702 ± 0.0019
186 | AHQEAIIPTIGK | 0.694 ± 0.087
187 | HLPSHPSLPPAP | 0.707 ± 0.029
188 | PDSASSLTPPPP | 0.66 ± 0.085
189 | GWVVGGGRLGVV | 0.723 ± 0.095
190 | WIRVYPDSSSPL | 0.8557 ± 0.002
191 | PMHVILGLSGQP | 0.732 ± 0.059
192 | SWHTSRPPPPPF | 0.656 ± 0.013
193 | GSVLRCFFRKGS | 0.6923 ± 0.0059
194 | RPPRNLDPSVSI | 0.646 ± 0.13
195 | AGAGGGQGKGRE | 0.639 ± 0.019
196 | IVALDGWPGVEA | 0.7226 ± 0.0055
